The data set has as its system MS2 coat protein. The experiment in a line: apparent KD of MS2 coat protein; designed switch direction (-1 OFF switch, 1 ON switch): -1; higher = weaker reporter binding. A digest of the protocol: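 Normalised cluster fluorescence was curve-fitted, and each design's median over clusters is its apparent KD. Before this, SNAP-549-labelled MS2 coat protein was titrated from 0.7 or 1.5 nM, doubling to 3 µM, over RNA switches transcribed on Illumina chips by stalled E. coli RNA polymerase. Titrations had no input, 200 uM small-molecule ligand, or an oligonucleotide input, and steps lasted 0.8–1.5 h (lowest) to 10–20 min (highest).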

The mark [1] stands for this setting: input ligand: microRNA oligo, concentration not stated.
The mark [2] stands for this setting: Eterna round: R95, input ligand: microRNA oligo, concentration not stated.
The mark [3] stands for this setting: Eterna round: R95, input ligand: FMN 200 uM.
[4] abbreviates: Eterna round: R95, input ligand: none.

With “GUCGUGCAGCUUUGCUGUACGAGUACAUGAGGAUCACCCAUGUAGGAUAUGGUACGCUUUGCGUGCUAGAAGGAUAUGUGUAGA [salish99_ExNG3_r04_502] (Eterna round: R96, puzzle: Exclusion NG 3)”, the “apparent KD of MS2 coat protein” value (input ligand: FMN 200 uM) came out at 53.5 nM, the “apparent KD of MS2 coat protein” value under setting [1] came out at 30.2 nM and the “apparent KD of MS2 coat protein” value (input ligand: none) was determined as 36.1 nM.

Consider “UUUUAACAUGAGGAUCACCCAUGUGAGGAUAUCGAAAUUUAUAUUAAUAUUUUUAUUUCGAGAAGGCACAUUUU [JMF 73] (puzzle: Exclusion 1)”, for which, under setting [2], the “apparent KD of MS2 coat protein” value is 138 nM.

Consider “UUACUAUGUCGCUUAAUAGCUUUUUGCUCGUCUUAUAUUACAUGAGGAUCACCCAUGUAGAUCAUGUGGCGUGACCU [JL ViennaUCT Maridi mod 6] (puzzle: Sensor v3, turn-off variant 2)”, for which the “apparent KD of MS2 coat protein” value under setting [3] turned out to be 247 nM, the “apparent KD of MS2 coat protein” value under setting [2] turned out to be 36 nM and the “apparent KD of MS2 coat protein” value under setting [4] stood at 237 nM.

With “CUUAUGUCAGGAUAUGCCUGGCCGUGAGGCCAAAUUGAAUAGCAGAAGGGACAUGAGGAUCACCCAUGUCCGGG [jl-ex4-4.64 ViennaUCT mod] (Eterna round: R97, puzzle: Exclusion 4)”, the “apparent KD of MS2 coat protein” value (input ligand: FMN 200 uM) turned out to be 115 nM and the “apparent KD of MS2 coat protein” value (input ligand: none) turned out to be 130 nM.

As to “GCGAAAGCAAACAGGUGAAACAUGAGGAUCACCCAUGUCCUCAUUUGCUCGUCUUAUAAGCUAUGCGAAAGCAUAGC [Sensor 3, v1 - 8] (puzzle: Sensor v3, turn-off variant 1)”, the “apparent KD of MS2 coat protein” value amounted to 100 nM under setting [3], 935 nM under setting [2] and 109 nM under setting [4].

As to “GACCAGGCAGGAUAUACAUGAGGAUCACCCAUGUGUCUGCGUUGGGCACGUGAACACGGUAGAAGGGCCUUGAC [ChP 13.04.2015 #15] (puzzle: Exclusion 3)”, under setting [2], the “apparent KD of MS2 coat protein” value amounted to 12.8 nM.

On to “AAUGAGGGAGGAUAUACAUUCGGCUGUCAACAGCCCUUGGGACAUGAGGAUCACCCAUGUAGAAGGCCCGAUUA [EX2 B.20] (Eterna round: R97, puzzle: Exclusion 2)”, for which the “apparent KD of MS2 coat protein” value (input ligand: FMN 200 uM) came to 365 nM and the “apparent KD of MS2 coat protein” value (input ligand: none) came to 38.7 nM.

Regarding “AUUAGUAUCUAGGAUAUCUAGUACAUAGUAUCUAGAGAAGGAGAUACAUGAGGAUCACCCAUGUUCUGUGAUCU [Exclusion 6 - 2:a] (puzzle: Exclusion 6)”, the “apparent KD of MS2 coat protein” value under setting [2] was 155 nM.

As to “AGUCAGAGAGGAUAUACAUGGGAAAAAAAAGUAAGAUCCCUACAUGAGGAUCACCCAUGUAGAAGGCUCUGACA [Ex2 Design 139: Sub-opt 3] (Eterna round: R96, puzzle: Exclusion 2)”, the “apparent KD of MS2 coat protein” value under setting [1] was 17.3 nM.

On to “GCGCCAUCGUGAGAUGGCGUAUAUACAUGAGGAUCACCCAUGUAGGAUAUCGAUUGCUUUGCAGUCGAGAAGGGCGUGUAAUUU [JL ENG3 3.92] (Eterna round: R96, puzzle: Exclusion NG 3)”, for which the “apparent KD of MS2 coat protein” value turned out to be 45.7 nM (input ligand: FMN 200 uM), 22.5 nM under setting [1] and 34.8 nM (input ligand: none).

As to “AGGUAACAUGAGGAUCACCCAUGUCAGGAUAUCAGGAAGAUUAGAAUAGAGUAGAGGAUGAGAAGGGACUAUAU [Excluse me! 18- Jieux - Exclusion 1] (puzzle: Exclusion 1)”, the “apparent KD of MS2 coat protein” value is, setting by setting: under setting [3], 31 nM; under setting [2], 31.7 nM; under setting [4], 43.1 nM.

For “AGCAUGCUAGGAUAUACGAAACAUUAGGGUUCUUUGUAUAAACAUGAGGAUCACCCAUGUAGAAGGAGCGUGCA [Mat - Exclusion 2 - Mod of Hyphema - D97] (puzzle: Exclusion 2)”, the “apparent KD of MS2 coat protein” value under setting [2] turned out to be 40.9 nM.

As for “GAGAUGUGAGGAUAUCUAGACCGCGGAAGAGCUGCGGUCCGAGAGAAGGCACAUGAGGAUCACCCAUGUGAUGA [Attere] (puzzle: Exclusion 4)”, the “apparent KD of MS2 coat protein” value under setting [2] was 38.4 nM.

Regarding “GCCCUCACAGUGAGGAUAUCUGAGCAUCCCGCUAAGGAGAAGGCACAUGAGGAUCACCCAUGUAAUUGGUUUAA [BmEX4 A.22] (Eterna round: R97, puzzle: Brourd's mod of Exclusion 4)”, the “apparent KD of MS2 coat protein” value runs as follows: (input ligand: FMN 200 uM) 124 nM; (input ligand: none) 39.8 nM.

For the sequence “AUUUAGAGAGGAUAUAUAAUGUGAAACAUGAGGAUCACCCAUGUAAUAUUAUGGAUGUAAAUAGAAGGCUCAUUUA [Mat - Exclusion 5 - JL mod - D5] (puzzle: Exclusion 5)”, under setting [2], the “apparent KD of MS2 coat protein” value is 30.2 nM.

For the sequence “AAUUAUUAUUGAGGAUAUCGUAUUGAAAUAAUAUGAGAAGGCGGGAUAAACAUGAGGAUCACCCAUGUGAGCCUGAUGCUUGUG [Ex NG1 #39] (Eterna round: R96, puzzle: Exclusion NG 1)”, the “apparent KD of MS2 coat protein” value under setting [1] came to 13.3 nM.

As to “CUGGUCCGAGGAUAUAUGAUGUGAAACAUGAGGAUCACCCAUGUAAUAUUAUGGAGGUAAAUAGAAGGCGGACUAG [Mat - Exclusion 5 - JL mod - D35] (puzzle: Exclusion 5)”, the “apparent KD of MS2 coat protein” value by setting is: under setting [3], 45.3 nM; under setting [2], 55.2 nM; under setting [4], 60 nM.

For the sequence “GUAAUUAUAUAGGAUAUCGAACUUAUUAUUUAACGAGAAGGAUGAACAUGAGGAUCACCCAUGUGGUAUCAUGG [JL-ex6-3.06] (puzzle: Exclusion 6)”, under setting [2], the “apparent KD of MS2 coat protein” value is 175 nM.

“AGGUGUAGAGGAUAUUUAUACUCCCACAUGAGGAUCACCCAUGUCCUGGUCACCAAGGACGGAGAAGGCUACACCA [Omei Ex5 D23] (Eterna round: R97, puzzle: Exclusion 5)”: the “apparent KD of MS2 coat protein” value turned out to be 48.5 nM (input ligand: FMN 200 uM) and 41.8 nM (input ligand: none).

With “UUUAAGUCAGGAUAUCGUUAAUUUAAUAAAUUAAUUUAAUUCGAGAAGGGACAUGAGGAUCACCCAUGUAAUUU [Ex4 #2] (Eterna round: R97, puzzle: Exclusion 4)”, the “apparent KD of MS2 coat protein” value runs as follows: (input ligand: FMN 200 uM) 33.5 nM; (input ligand: none) 28 nM.

Consider “UUAAACGGAGGAUAUACAUUUUUUUUAUUAUCCUCAUUAAAACAUGAGGAUCACCCAUGUAGAAGGCCGAAAUU [Mat - Exclusion 2 - Mod of Hog - D86] (puzzle: Exclusion 2)”, for which the “apparent KD of MS2 coat protein” value under setting [2] is 91.5 nM.

On to “CUGAGGUAGCGGUCCUAUGACAUGAGGAUCACCCAUGUACCUUGCUUUGAGCUAUUUGCUCGUCUUAUGAUUCUCGG [Mat - Sensor v3 - turn-off var 1 - JL Mod - D40] (Eterna round: R96, puzzle: Sensor v3, turn-off variant 1)”, for which the “apparent KD of MS2 coat protein” value (input ligand: FMN 200 uM) turned out to be 788 nM, the “apparent KD of MS2 coat protein” value under setting [1] stood at 655 nM and the “apparent KD of MS2 coat protein” value (input ligand: none) is 758 nM.

As for “UGUUGUUGAUAGGAUAUACUUGUAGGAGUAGGAGUAGAAGGAUCUACAUGAGGAUCACCCAUGUAGGAGUGAGA [JR_E6_Sub003] (puzzle: Exclusion 6)”, the “apparent KD of MS2 coat protein” value is 18.2 nM under setting [3], 16.6 nM under setting [2] and 15.7 nM under setting [4].

As for “GAUUAUGCGAGCUUUAGGGACAUGAGGAUCACCCAUGUUCGUCUUAUUGGUCUGGAUACACUGACAUACCUAAAUCU [JMF 60] (puzzle: Sensor v3, turn-off variant 1)”, the “apparent KD of MS2 coat protein” value by setting is: under setting [3], 16.8 nM; under setting [2], 22.6 nM; under setting [4], 18.4 nM.

The record behind these values is the supplement of paper PMC9170038.
